± gives the uncertainty stated by the source.
B1: POU domain, class 3, transcription factor 2, residues 262 to 338; numbered along this chain, P20265 (parent)
chain: EDTPTSDDLEQFAKQFKQRRIKLGFTQADVGLALGTLYGNVFSQTTICRFEALQLSFKNMCKLKPLLNKWLEEADSS

Variants of: B1
Test: abundance fitness (aPCA) (normalised: wild type 0, dead -1); higher = more abundant; growth selection in yeast, the domain comes from the species named
Details: Homo sapiens

Variant	abundance fitness
EDTPTSDDLEQFAKQFKQRRIKLGFTQADVGLALGTLYGNVFSQTTICRFEALQLSFKNMCKLKPLLLKWLEEADSS	0.004 ± 0.07
EDTPTSDDLEQFAKQFKQRRIKLGFTQADVGLALGTLYGNVFSQTTICRFEALQLSFKNMCKLKPLLCKWLEEADSS	-0.096 ± 0.13
EDTPTSDDLEQFAKQFKQRRIKLGFTQADVGLALGTLYGNVFSQTTICRFEALQLSFKNMCKLKPLLVKWLEEADSS	0.085 ± 0.077
EDTPTSDDLEQFAKQFKQRRIKLGFTQADVGLALGTLYGNVFSQTTICRFEALQLSFKNMCKLKPLLGKWLEEADSS	0.074 ± 0.065
EDTPTSDDLEQFAKQFKQRRIKLGFTQADVGLALGTLYGNVFSQTTICRFEALQLSFKNMCKLKPLLRKWLEEADSS	-0.004 ± 0.074
EDTPTSDDLEQFAKQFKQRRIKLGFTQADVGLALGTLYGNVFSQTTICRFEALQLSFKNMCKLKPLLMKWLEEADSS	-0.284 ± 0.27
EDTPTSDDLEQFAKQFKQRRIKLGFTQADVGLALGTLYGNVFSQTTICRFEALQLSFKNMCKLKPLLDKWLEEADSS	-0.182 ± 0.12
EDTPTSDDLEQFAKQFKQRRIKLGFTQADVGLALGTLYGNVFSQTTICRFEALQLSFKNMCKLKPLLPKWLEEADSS	-0.98 ± 0.47
EDTPTSDDLEQFAKQFKQRRIKLGFTQADVGLALGTLYGNVFSQTTICRFEALQLSFKNMCKLKPLLQKWLEEADSS	-0.313 ± 0.43
EDTPTSDDLEQFAKQFKQRRIKLGFTQADVGLALGTLYGNVFSQTTICRFEALQLSFKNMCKLKPLLAKWLEEADSS	-0.007 ± 0.077
EDTPTSDDLEQFAKQFKQRRIKLGFTQADVGLALGTLYGNVFSQTTICRFEALQLSFKNMCKLKPLLTKWLEEADSS	0.046 ± 0.085
EDTPTSDDLEQFAKQFKQRRIKLGFTQADVGLALGTLYGNVFSQTTICRFEALQLSFKNMCKLKPLLWKWLEEADSS	0.004 ± 0.1
EDTPTSDDLEQFAKQFKQRRIKLGFTQADVGLALGTLYGNVFSQTTICRFEALQLSFKNMCKLKPLFNKWLEEADSS	-0.399 ± 0.2
EDTPTSDDLEQFAKQFKQRRIKLGFTQADVGLALGTLYGNVFSQTTICRFEALQLSFKNMCKLKPLANKWLEEADSS	-0.553 ± 0.12
EDTPTSDDLEQFAKQFKQRRIKLGFTQADVGLALGTLYGNVFSQTTICRFEALQLSFKNMCKLKPLDNKWLEEADSS	-0.759 ± 0.43
EDTPTSDDLEQFAKQFKQRRIKLGFTQADVGLALGTLYGNVFSQTTICRFEALQLSFKNMCKLKPLENKWLEEADSS	-0.936 ± 0.27
EDTPTSDDLEQFAKQFKQRRIKLGFTQADVGLALGTLYGNVFSQTTICRFEALQLSFKNMCKLKPLKNKWLEEADSS	-0.688 ± 0.18
EDTPTSDDLEQFAKQFKQRRIKLGFTQADVGLALGTLYGNVFSQTTICRFEALQLSFKNMCKLKPLPNKWLEEADSS	-0.654 ± 0.16
EDTPTSDDLEQFAKQFKQRRIKLGFTQADVGLALGTLYGNVFSQTTICRFEALQLSFKNMCKLKPLSNKWLEEADSS	-0.619 ± 0.13
EDTPTSDDLEQFAKQFKQRRIKLGFTQADVGLALGTLYGNVFSQTTICRFEALQLSFKNMCKLKPLWNKWLEEADSS	-0.798 ± 0.16
EDTPTSDDLEQFAKQFKQRRIKLGFTQADVGLALGTLYGNVFSQTTICRFEALQLSFKNMCKLKPLMNKWLEEADSS	0.006 ± 0.085
EDTPTSDDLEQFAKQFKQRRIKLGFTQADVGLALGTLYGNVFSQTTICRFEALQLSFKNMCKLKPLCNKWLEEADSS	-0.504 ± 0.23
EDTPTSDDLEQFAKQFKQRRIKLGFTQADVGLALGTLYGNVFSQTTICRFEALQLSFKNMCKLKPLVNKWLEEADSS	-0.525 ± 0.099
EDTPTSDDLEQFAKQFKQRRIKLGFTQADVGLALGTLYGNVFSQTTICRFEALQLSFKNMCKLKPLTNKWLEEADSS	-0.407 ± 0.32

Variant	abundance fitness
EDTPTSDDLEQFAKQFKQRRIKLGFTQADVGLALGTLYGNVFSQTTICRFEALQLSFKNMCKLKPLGNKWLEEADSS	-1.05 ± 0.21
EDTPTSDDLEQFAKQFKQRRIKLGFTQADVGLALGTLYGNVFSQTTICRFEALQLSFKNMCKLKPLLNKHLEEADSS	-0.943 ± 0.21
EDTPTSDDLEQFAKQFKQRRIKLGFTQADVGLALGTLYGNVFSQTTICRFEALQLSFKNMCKLKPLLNKALEEADSS	-0.519 ± 0.048
EDTPTSDDLEQFAKQFKQRRIKLGFTQADVGLALGTLYGNVFSQTTICRFEALQLSFKNMCKLKPLLNKELEEADSS	-0.742 ± 0.077
EDTPTSDDLEQFAKQFKQRRIKLGFTQADVGLALGTLYGNVFSQTTICRFEALQLSFKNMCKLKPLLNKMLEEADSS	-0.669 ± 0.084
EDTPTSDDLEQFAKQFKQRRIKLGFTQADVGLALGTLYGNVFSQTTICRFEALQLSFKNMCKLKPLLNKGLEEADSS	-0.754 ± 0.041
EDTPTSDDLEQFAKQFKQRRIKLGFTQADVGLALGTLYGNVFSQTTICRFEALQLSFKNMCKLKPLLNKLLEEADSS	-0.502 ± 0.043
EDTPTSDDLEQFAKQFKQRRIKLGFTQADVGLALGTLYGNVFSQTTICRFEALQLSFKNMCKLKPLLNKCLEEADSS	-0.698 ± 0.11
EDTPTSDDLEQFAKQFKQRRIKLGFTQADVGLALGTLYGNVFSQTTICRFEALQLSFKNMCKLKPLLNKDLEEADSS	-0.431 ± 0.15
EDTPTSDDLEQFAKQFKQRRIKLGFTQADVGLALGTLYGNVFSQTTICRFEALQLSFKNMCKLKPLLNKFLEEADSS	-0.111 ± 0.068
EDTPTSDDLEQFAKQFKQRRIKLGFTQADVGLALGTLYGNVFSQTTICRFEALQLSFKNMCKLKPLLNKKLEEADSS	-0.814 ± 0.12
EDTPTSDDLEQFAKQFKQRRIKLGFTQADVGLALGTLYGNVFSQTTICRFEALQLSFKNMCKLKPLLNKILEEADSS	-0.64 ± 0.15
EDTPTSDDLEQFAKQFKQRRIKLGFTQADVGLALGTLYGNVFSQTTICRFEALQLSFKNMCKLKPQLNKWLEEADSS	-0.233 ± 0.046
EDTPTSDDLEQFAKQFKQRRIKLGFTQADVGLALGTLYGNVFSQTTICRFEALQLSFKNMCKLKPWLNKWLEEADSS	-0.148 ± 0.034
EDTPTSDDLEQFAKQFKQRRIKLGFTQADVGLALGTLYGNVFSQTTICRFEALQLSFKNMCKLKPPLNKWLEEADSS	-0.437 ± 0.064
EDTPTSDDLEQFAKQFKQRRIKLGFTQADVGLALGTLYGNVFSQTTICRFEALQLSFKNMCKLKPYLNKWLEEADSS	-0.22 ± 0.081
EDTPTSDDLEQFAKQFKQRRIKLGFTQADVGLALGTLYGNVFSQTTICRFEALQLSFKNMCKLKPNLNKWLEEADSS	-0.504 ± 0.1
EDTPTSDDLEQFAKQFKQRRIKLGFTQADVGLALGTLYGNVFSQTTICRFEALQLSFKNMCKLKPHLNKWLEEADSS	-0.274 ± 0.08
EDTPTSDDLEQFAKQFKQRRIKLGFTQADVGLALGTLYGNVFSQTTICRFEALQLSFKNMCKLKPELNKWLEEADSS	-0.637 ± 0.061
EDTPTSDDLEQFAKQFKQRRIKLGFTQADVGLALGTLYGNVFSQTTICRFEALQLSFKNMCKLKPDLNKWLEEADSS	-0.767 ± 0.23
EDTPTSDDLEQFAKQFKQRRIKLGFTQADVGLALGTLYGNVFSQTTICRFEALQLSFKNMCKLKPGLNKWLEEADSS	-0.536 ± 0.037
EDTPTSDDLEQFAKQFKQRRIKLGFTQADVGLALGTLYGNVFSQTTICRFEALQLSFKNMCKLKPMLNKWLEEADSS	-0.015 ± 0.042
EDTPTSDDLEQFAKQFKQRRIKLGFTQADVGLALGTLYGNVFSQTTICRFEALQLSFKNMCKLKPCLNKWLEEADSS	-0.239 ± 0.05
EDTPTSDDLEQFAKQFKQRRIKLGFTQADVGLALGTLYGNVFSQTTICRFEALQLSFKNMCKLKPFLNKWLEEADSS	-0.05 ± 0.048

Variant	abundance fitness
EDTPTSDDLEQFAKQFKQRRIKLGFTQADVGLALGTLYGNVFSQTTICRFEALQLSFKNMCKLKPRLNKWLEEADSS	-0.242 ± 0.029
EDTPTSDDLEQFAKQFKQRRIKLGFTQADVGLALGTLYGNVFSQTTICRFEALQLSFKNMCKLKPALNKWLEEADSS	-0.137 ± 0.034
EDTPTSDDLEQFAKQFKQRRIKLGFTQADVGLALGTLYGNVFSQTTICRFEALQLSFKNMCKLKPSLNKWLEEADSS	-0.423 ± 0.041
EDTPTSDDLEQFAKQFKQRRIKLGFTQADVGLALGTLYGNVFSQTTICRFEALQLSFKNMCKLKPVLNKWLEEADSS	-0.077 ± 0.03
EDTPTSDDLEQFAKQFKQRRIKLGFTQADVGLALGTLYGNVFSQTTICRFEALQLSFKNMCKLKPKLNKWLEEADSS	-0.096 ± 0.043
EDTPTSDDLEQFAKQFKQRRIKLGFTQADVGLALGTLYGNVFSQTTICRFEALQLSFKNMCKLKPILNKWLEEADSS	-0.071 ± 0.063
EDTPTSDDLEQFAKQFKQRRIKLGFTQADVGLALGTLYGNVFSQTTICRFEALQLSFKNMCKLKPLLNQWLEEADSS	-0.003 ± 0.087
EDTPTSDDLEQFAKQFKQRRIKLGFTQADVGLALGTLYGNVFSQTTICRFEALQLSFKNMCKLKPLLNMWLEEADSS	0.112 ± 0.14
EDTPTSDDLEQFAKQFKQRRIKLGFTQADVGLALGTLYGNVFSQTTICRFEALQLSFKNMCKLKPLLNEWLEEADSS	-0.231 ± 0.1
EDTPTSDDLEQFAKQFKQRRIKLGFTQADVGLALGTLYGNVFSQTTICRFEALQLSFKNMCKLKPLLNRWLEEADSS	0.019 ± 0.056
EDTPTSDDLEQFAKQFKQRRIKLGFTQADVGLALGTLYGNVFSQTTICRFEALQLSFKNMCKLKPLLNDWLEEADSS	-0.264 ± 0.14
EDTPTSDDLEQFAKQFKQRRIKLGFTQADVGLALGTLYGNVFSQTTICRFEALQLSFKNMCKLKPLLNVWLEEADSS	-0.273 ± 0.084
EDTPTSDDLEQFAKQFKQRRIKLGFTQADVGLALGTLYGNVFSQTTICRFEALQLSFKNMCKLKPLLNNWLEEADSS	-0.298 ± 0.25
EDTPTSDDLEQFAKQFKQRRIKLGFTQADVGLALGTLYGNVFSQTTICRFEALQLSFKNMCKLKPLLNCWLEEADSS	-0.449 ± 0.16
EDTPTSDDLEQFAKQFKQRRIKLGFTQADVGLALGTLYGNVFSQTTICRFEALQLSFKNMCKLKPLLNSWLEEADSS	-0.146 ± 0.1
EDTPTSDDLEQFAKQFKQRRIKLGFTQADVGLALGTLYGNVFSQTTICRFEALQLSFKNMCKLKPLLNFWLEEADSS	-0.234 ± 0.14
EDTPTSDDLEQFAKQFKQRRIKLGFTQADVGLALGTLYGNVFSQTTICRFEALQLSFKNMCKLKPLLNTWLEEADSS	-0.02 ± 0.08
EDTPTSDDLEQFAKQFKQRRIKLGFTQADVGLALGTLYGNVFSQTTICRFEALQLSFKNMCKLKPLLNAWLEEADSS	-0.094 ± 0.07
EDTPTSDDLEQFAKQFKQRRIKLGFTQADVGLALGTLYGNVFSQTTICRFEALQLSFKNMCKLKPLLNLWLEEADSS	-0.144 ± 0.092
EDTPTSDDLEQFAKQFKQRRIKLGFTQADVGLALGTLYGNVFSQTTICRFEALQLSFKNMCKLKPLLNWWLEEADSS	-0.288 ± 0.16
EDTPTSDDLEQFAKQFKQRRIKLGFTQADVGLALGTLYGNVFSQTTICRFEALQLSFKNMCKLKPLLNYWLEEADSS	0.138 ± 0.16
EDTPTSDDLEQFAKQFKQRRIKLGFTQADVGLALGTLYGNVFSQTTICRFEALQLSFKNMCKLKYLLNKWLEEADSS	0.137 ± 0.23
EDTPTSDDLEQFAKQFKQRRIKLGFTQADVGLALGTLYGNVFSQTTICRFEALQLSFKNMCKLKWLLNKWLEEADSS	-0.201 ± 0.092
